The target of experiment [1] is T1, human CD93 on cells (CD93-transfected HEK293T cells; endogenous on HUVEC cells) (human, UniProt Q9NPY3 22-652).
T1 construct: in the co-immunoprecipitation it comes from HUVEC lysate; also called CD93 transfectant; CD93+ 293 cells
T1 sequence: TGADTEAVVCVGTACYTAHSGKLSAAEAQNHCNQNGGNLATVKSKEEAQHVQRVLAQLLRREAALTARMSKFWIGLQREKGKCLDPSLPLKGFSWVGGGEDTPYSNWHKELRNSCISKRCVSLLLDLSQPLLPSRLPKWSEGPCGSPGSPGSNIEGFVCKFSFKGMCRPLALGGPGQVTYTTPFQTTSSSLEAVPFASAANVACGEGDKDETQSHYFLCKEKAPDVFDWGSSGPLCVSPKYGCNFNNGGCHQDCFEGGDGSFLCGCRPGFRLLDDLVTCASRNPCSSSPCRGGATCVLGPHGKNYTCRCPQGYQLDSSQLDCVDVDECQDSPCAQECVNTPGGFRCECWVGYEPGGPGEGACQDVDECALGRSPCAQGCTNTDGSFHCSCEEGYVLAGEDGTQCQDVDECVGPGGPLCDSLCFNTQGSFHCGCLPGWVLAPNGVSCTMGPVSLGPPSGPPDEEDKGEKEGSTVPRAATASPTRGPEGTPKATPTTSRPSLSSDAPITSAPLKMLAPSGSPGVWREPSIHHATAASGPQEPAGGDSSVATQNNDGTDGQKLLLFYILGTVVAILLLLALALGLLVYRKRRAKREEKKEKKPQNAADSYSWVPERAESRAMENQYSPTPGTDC
Put plainly: flow cytometry, HEK293T supernatant of the Fc-tagged protein on CD93 transfectant; binding index = MFI of CD93 transfectant / MFI of control cells.

Experiment [2] has as its target T1, human CD93 on cells (CD93-transfected …). Put plainly: flow cytometry, HEK293T supernatant on CD93 transfectant; binding index = MFI of CD93 transfectant / MFI of control.

Here are results for 12 molecules from patent US20220235136A1 (YALE UNIVERSITY, published 2022).

B1: KAZALD1 (Fc fusion, human, UniProt Q96I82 31-304, looked up)
fusion chain: RPSPGPDYLRRGWMRLLAEGEGCAPCRPEECAAPRGCLAGRVRDACGCCWECANLEGQLCDLDPSAHFYGHCGEQLECRLDTGGDLSRGEVPEPLCACRSQSPLCGSDGHTYSQICRLQEAARARPDANLTVAHPGPCESGPQIVSHPYDTWNVTGQDVIFGCEVFAYPMASIEWRKDGLDIQLPGDDPHISVQFRGGPQRFEVTGWLQIQAVRPSDEGTYRCLGRNALGQVEAPASLTVLTPDQLNSTGIPQLRSLNLVPEEEAESEENDDYY
notes: member of the group m19; HEK293T supernatant
B1: the binding result in experiment [1] is listed as “no binding”.

B2: IGFBP4 (Fc fusion, human, UniProt P22692 22-258, looked up)
fusion chain: DEAIHCPPCSEEKLARCRPPVGCEELVREPGCGCCATCALGLGMPCGVYTPRCGSGLRCYPPRGVEKPLHTLMHGQGVCMELAEIEAIQESLQPSDKDEGDHPNNSFSPCSAHDRRCLQKHFAKIRDRSTSGGKMKVNGAPREDARPVPQGSCQSELHRALERLAASQSRTHEDLYIIPIPNCDRNGNFHPKQCHPALDGQRGKCWCVDRKTGVKLPGGLEPKGELDCHQLADSFRE
notes: as for B1
With B2, the binding result in experiment [1] is “no binding”.

B3: IGFBP2 (Fc fusion, human, UniProt P18065 36-325, looked up)
fusion chain: AEVLFRCPPCTPERLAACGPPPVAPPAAVAAVAGGARMPCAELVREPGCGCCSVCARLEGEACGVYTPRCGQGLRCYPHPGSELPLQALVMGEGTCEKRRDAEYGASPEQVADNGDDHSEGGLVENHVDSTMNMLGGGGSAGRKPLKSGMKELAVFREKVTEQHRQMGKGGKHHLGLEEPKKLRPPPARTPCQQELDQVLERISTMRLPDERGPLEHLYSLHIPNCDKHGLYNLKQCKMSLNGQRGECWCVNPNTGKLIQGAPTIRGDPECHLFYNEQQEARGVHTQRMQ
notes: as for B1
In the case of B3, the binding result in experiment [1] is recorded as “no binding”.

B4: CYR61 (Fc fusion, human, UniProt O00622 25-381, looked up)
fusion chain: TCPAACHCPLEAPKCAPGVGLVRDGCGCCKVCAKQLNEDCSKTQPCDHTKGLECNFGASSTALKGICRAQSEGRPCEYNSRIYQNGESFQPNCKHQCTCIDGAVGCIPLCPQELSLPNLGCPNPRLVKVTGQCCEEWVCDEDSIKDPMEDQDGLLGKELGFDASEVELTRNNELIAVGKGSSLKRLPVFGMEPRILYNPLQGQKCIVQTTSWSQCSKTCGTGISTRVTNDNPECRLVKETRICEVRPCGQPVYSSLKKGKKCSKTKKSPEPVRFTYAGCLSVKKYRPKYCGSCVDGRCCTPQLTRTVKMRFRCEDGETFSKNVMMIQSCKCNYNCPHANEAAFPFYRLFNDIHKFRD
notes: as for B1
B4: in experiment [1], the binding result is on record as “no binding”.

B5: NOV (Fc fusion, not shown: a dimerising Fc or GST; small tags and cut ends)
chain: TQRCPPQCPGRCPATPPTCAPGVRAVLDGCSCCLVCARQRGESCSDLEPCDESSGLYCDRSADPSNQTGICTAVEGDNCVFDGVIYRSGEKFQPSCKFQCTCRDGQIGCVPRCQLDVLLPEPNCPAPRKVEVPGECCEKWICGPDEEDSLGGLTLAAYRPEATLGVEVSDSSVNCIEQTTEWTACSKSCGMGFSTRVTNRNRQCEMLKQTRLCMVRPCEQEPEQPTDKKGKKCLRTKKSLKAIHLQFKNCTSLHTYKPRFCGVCSDGRCCTPHNTKTIQAEFQCSPGQIVKKPVMVIGTCTCHTNCPKNNEAFLQELELKTTRGKM
notes: as for B1
On to B5, for which the binding result in experiment [1] is recorded as “no binding”.

B6: CTGF (Fc fusion, human, UniProt P29279 27-349, looked up)
fusion chain: QNCSGPCRCPDEPAPRCPAGVSLVLDGCGCCRVCAKQLGELCTERDPCDPHKGLFCHFGSPANRKIGVCTAKDGAPCIFGGTVYRSGESFQSSCKYQCTCLDGAVGCMPLCSMDVRLPSPDCPFPRRVKLPGKCCEEWVCDEPKDQTVVGPALAAYRLEDTFGPDPTMIRANCLVQTTEWSACSKTCGMGISTRVTNDNASCRLEKQSRLCMVRPCEADLEENIKKGKKCIRTPKISKPIKFELSGCTSMKTYRAKFCGVCTDGRCCTPHRTTTLPVEFKCPDGEVMKKNMMFIKTCACHYNCPGDNDIFESLYYRKMYGDMA
notes: as for B1
With B6, the binding result in experiment [1] is reported as “no binding”.

B7: IGFBP7 fused to a C-terminal Ig (made in transfected HEK293T cells, used as supernatant) (Fc fusion, not shown: a dimerising Fc or GST; small tags and cut ends)
chain: SSSDTCGPCEPASCPPLPPLGCLLGETRDACGCCPMCARGEGEPCGGGGAGRGYCAPGMECVKSRKRRKGKAGAAAGGPGVSGVCVCKSRYPVCGSDGTTYPSGCQLRAASQRAESRGEKAITQVSKGTCEQGPSIVTPPKDIWNVTGAQVYLSCEVIGIPTPVLIWNKVKRGHYGVQRTELLPGDRDNLAIQTRGGPEKHEVTGWVLVSPLSKEDAGEYECHASNSQGQASASAKITVVDALHEIPVKKGEGAEL
notes: also called Fc tagged fusion protein of IGFBP7
Turning to B7, the binding result in experiment [2] is given as “binds”.

B8: WISP1 (Fc fusion, human, UniProt O95388 23-367, looked up)
fusion chain: TALSPAPTTMDFTPAPLEDTSSRPQFCKWPCECPPSPPRCPLGVSLITDGCECCKMCAQQLGDNCTEAAICDPHRGLYCDYSGDRPRYAIGVCAQVVGVGCVLDGVRYNNGQSFQPNCKYNCTCIDGAVGCTPLCLRVRPPRLWCPHPRRVSIPGHCCEQWVCEDDAKRPRKTAPRDTGAFDAVGEVEAWHRNCIAYTSPWSPCSTSCGLGVSTRISNVNAQCWPEQESRLCNLRPCDVDIHTLIKAGKKCLAVYQPEASMNFTLAGCISTRSYQPKYCGVCMDNRCCIPYKSKTIDVSFQCPDGLGFSRQVLWINACFCNLSCRNPNDIFADLESYPDFSEIAN
notes: as for B1
Turning to B8, in experiment [1], the binding result is “no binding”.

B9: ESM1 (Fc fusion, human, UniProt Q9NQ30 20-184, looked up)
fusion chain: WSNNYAVDCPQHCDSSECKSSPRCKRTVLDDCGCCRVCAAGRGETCYRTVSGMDGMKCGPGLRCQPSNGEDPFGEEFGICKDCPYGTFGMDCRETCNCQSGICDRGTGKCLKFPFFQYSVTKSSNRFVSLTEHDMASGDGNIVREEVVKENAAGSPVMRKWLNPR
notes: as for B1
As to B9, the binding result in experiment [1] was “no binding”.

B10: IGFBP1 (Fc fusion, human, UniProt P08833 26-259, looked up)
fusion chain: APWQCAPCSAEKLALCPPVSASCSEVTRSAGCGCCPMCALPLGAACGVATARCARGLSCRALPGEQQPLHALTRGQGACVQESDASAPHAAEAGSPESPESTEITEEELLDNFHLMAPSEEDHSILWDAISTYDGSKALHVTNIKKWKEPCRIELYRVVESLAKAQETSGEEISKFYLPNCNKNGFYHSRQCETSMDGEAGLCWCVYPWNGKRIPGSPEIRGDPNCQIYFNVQN
notes: as for B1
For B10, in experiment [1], the binding result is on record as “no binding”.

B11: WISP3 (Fc fusion, human, UniProt O95389 24-354, looked up)
fusion chain: TGPLDTTPEGRPGEVSDAPQRKQFCHWPCKCPQQKPRCPPGVSLVRDGCGCCKICAKQPGEICNEADLCDPHKGLYCDYSVDRPRYETGVCAYLVAVGCEFNQVHYHNGQVFQPNPLFSCLCVSGAIGCTPLFIPKLAGSHCSGAKGGKKSDQSNCSLEPLLQQLSTSYKTMPAYRNLPLIWKKKCLVQATKWTPCSRTCGMGISNRVTNENSNCEMRKEKRLCYIQPCDSNILKTIKIPKGKTCQPTFQLSKAEKFVFSGCSSTQSYKPTFCGICLDKRCCIPNKSKMITIQFDCPNEGSFKWKMLWITSCVCQRNCREPGDIFSELKIL
notes: as for B1
Consider B11, for which, in experiment [1], the binding result was “no binding”.

B12: IGFBP6 (Fc fusion, human, UniProt P24592 28-240, looked up)
fusion chain: RCPGCGQGVQAGCPGGCVEEEDGGSPAEGCAEAEGCLRREGQECGVYTPNCAPGLQCHPPKDDEAPLRALLLGRGRCLPARAPAVAEENPKESKPQAGTARPQDVNRRDQQRNPGTSTTPSQPNSAGVQDTEMGPCRRHLDSVLQQLQTEVYRGAQTLYVPNCDHRGFYRKRQCRSSQGQRRGPCWCVDRMGKSLPGSPDGNGSSSCPTGSSG
notes: as for B1
With B12, the binding result in experiment [1] is recorded as “no binding”.
